# Source: the DeepSol protein solubility set
# Assay: soluble on expression in E. coli; label from the status in PepcDB or PDB records
row,Sequence,soluble on expression in E. coli
1,MGTVLCSCLLGDNAKVRLKLSKMLEEEASGFYPDVLPEGSVSICEVEMKGCRREFYADRRSEEIEIGTPVIVEADGGFDMGVVYSTGRIALRKLQLKGLVSEVEKLPAIMRRATEEEVREFTEIRKREPEIREACLKRIERHQLDMKLVDIDLRLDQQKLSVYYTATHRIDFRGLVRDLAGEFKARIQMVQITTREEARRTNAQGSCGCALCCSTWMQKIHSNPFAEKPQMPDSMNGDNFSFNTIGLCNRPKCCLGFSKTNGKNGNCHHGKVRQNGWPSVGTTFTVRDGNAVVEGVDQQKKSIWIRYVSTGQKRRISLDQYNNMAGKRQGGQALEHHHHHH,not soluble
2,GPLGSAQTLQMEIPNFGNSILECLNEQRLQGLYCDVSVVVKGHAFKAHRAVLAASSSYFRDLFNNSRSAVVELPAAVQPQSFQQILSFCYTGRLSMNVGDQDLLMYTAGFLQIQEIMEKGTEFFLKVSS,soluble
3,GDQEPPLYVNENDIFTSPTRIEATLNGLYAAIKNTGTKSLMGGKSYLVFDNRGDDVINISNNLVTLFNTYNMNVGITDAENADTWTYAYLAINKVNTFLQSLEGAREVAGENYDRYVQEAKFVRALAYYYLNNLYPTPYSVNPDAKSVPLRLTAEAGTENNNMPRSTVKQIYEHILSDLENISALDTEVNTYTGVTHATQAAANMLKMRVYMAMNEWDKAITAGELVTGYSLPEDVTLIYKAPYFSQESIFSLPMADTNIPNTQQSLAEYYYDGKIMLIDTKSGIMSKPDYSLATDKRIIAFKGEKDLLMKFTDAKTKLQWVPIFRYAETLLDLAECYANKAGGEATAKSLLKQVRGRSVDAATDPLNIDNLSGDALKEAIYNEKRLEFIGEGIRGIDIMRRGEHFIKVGENETINVGPSDEKYTWPIPQVELLLNKDINK,soluble
4,MCVNFIPPSRGQLREWLGCDPGDGQWPDEAWQDYPAPILTRDGLRFASYGFIPKRHQPAGVRLSTMNARVETIGQLRSYRDAWRNCQLCLVPMQAFYEPCYESGRAVRTKISMADGAPFAVAGLWREWREADGSISLAFTQITIHADGHAVMGRMHRPGDEKRSLAIIPAALYQAWLHCRNPEQARAFLQLFSAEAMRAEGEIADPPRQGSLFDLEHHHHHH,not soluble
5,MLTGRESLLRLIGKRRRFLPNRHLLLSAHTPNSLNLEFNDYGNLVSLAGDDCRLSEDPTSSDDPSKFSDDLSLSTRKKRRLTQTTLLQSSFLSVPKQLEDGLVICTQQKSILDSETFEFSLVQRSEPSESICCKVEDGSCSPSREESLKTVTLDEDNGEAIETFIVGRKFSDVQDLEIGGDIFLLRHPENVKDRNAIKVISGDSEMLGYLPKDISQCLSPLIDDYDLKFEGTITSVPKKSSEAVLIKVVCHKMRSDGWKECELYGDFKPLWEKVLQVVEHQMQFPPKTTRYQLNFNVLLQEVLRSCSHLFTADEKAFLESFPTLSEDSQRLFIRLYTRKGPWFRLSNISYPEVTDSLQALKDLTVRGFMSSVKDANELDNQKMKEITELLNVTELRDILSMNKVFSRTSRKRDLINSLCSCYNDGTRINLATVILERTGLCAKVSSTAESLIWRVERLFFLNGEQDLSSFVLLDLGIIKYPTYKCIDSEQIFSNRTKLLAYEEAIEVAQLMDESLDNEDPQTVLKCIIIAETRISSSSLDSAHAAAFNRFTAPWVNSKVVLLGVSFFENQKRYNRAVYLLRRLLSCFNCDGRRGYWTVRLSTDLEHMGRPNESLTVAEQGLLDPWVRAGSRVALQRRILRLAKPPRRWKTPTFSNLVDNKIPEVTIQGRSLNCEVGIKNRFYGEDGEQCGVEQLALQYYSGEGGGWQGIHTESSIWLTIFGLLMWDILFSDVPGVFQTRFQVNETQ,not soluble
6,AHHHHHHGSYDELFKKIKEKAKFVDEKLLSLIPEKEPKILYEAARHYPLAGGKRVRPFVVLTATEAVGGEWEKAIYPAVAIELIHNYSLVHDDIMDMDETRRGRPTVHKVWGINMAILAGDLLFSKAFEAISRAEIPPEKKARVLETVVKASNELCEGQAMDLEFEKRDTVTIEEYMRMISGKTGALFDASAKVGGIVGTDNEEYINALSTWGRNVGIAFQIWDDVLDLIADEEKLGKPVGSDIRKGKKTLIVAHFFENADEKDKQKFLKVFGKYAGDVKGEGIIEEDIKAEVMEAIDLLKKYGSIDYAANIAREMVKKANEALKVLPESEARKDLELLARFIVEREY,soluble
7,MEILEEKPKEGKVKIKVETLDDLWHLYHIITPGDVVYAKTLRKQSQRSDSLRPEKVEVIPVFLGVKVEKINFHKFANQLRVTGPIIYASREDVPLGKYHTIAVEPGTIITLQKERWKPYYIERLKEAVEASKRAKVMIVTIEDGEAEMAIVREYGLDFIATIRHNLGGKRYNIKREDEERKFFHDVAKTMKDVMSRENIQRAIVAGPGFYKEDFYKFLKENYPDLASKIVLDDTSMGGRVGIYEVIKRGTVDKVYSESRIANEIKLVEKVIERIAKDEPVAYGMKEVEEAVNYGAVEILLVLDELLKGDNREKVEELMELARSLRSKVVVVSSEHEGGEKLKALGGIAGILRFKIK,soluble
8,MGSDKIHHHHHHMTLTYFLDKETDTPIYKQLYESLRKDILSGKLKTGAKLPSIRHFAQTLNVSVITVQNAYHQLEAEGYITSRDRSGYYVENLAGLTLLERQDAKIIHAPHHDQASEDQIIDFSPSNIDNAQFPLSIWRKCVNETLLNHETRFNHHGAKLGELPLRAAVADYVTKSRILDCTEEQVVIFEGIEHSMNILSLLFKQMGKTAIMEQPSYKVIEDIFSLHQLPIQRVPSPKGVLSLEDLQEQKNGVLYLTPSHQYPYGSFLSIQERIKIINWAQNSESYVIEDDYDGEFRYDIDPVPSLQGLSKNHVIYIGTFSKTLSPAIRVSYAILPPELMKRYQEVCSMFPSPVSVHLQLALAKFMEDGHYERHIRRMRKYYKEKQDFLIATIQEVMGDHAALHGTTAGLHLVLELKNNSRPYKQLLAAARAHGVNIYPVKDVTPNPYFILGFSGLPREKITEGIRRLHKAWIE,not soluble
9,MGSDKIHHHHHHMSMDIVERINKLKEEKNAVILAHNYQPKEIQKIADFLGDSLELCIKAKETDADIIVFCGVDFMGESAKILNPEKKVLMPEIEGTQCPMAHQLPPEIIKKYRELYPEAPLVVYVNTTAETKALADITCTSANADRVVNSLDADTVLFGPDNNLAYYVQKRTDKKVIAIPEGGGCYVHKKFTIDDLKRVKSKYPNAKVLIHPECSPELQDNADYIASTSGILRIVLESDDEEFIIGTEVGMINRLEIELEKLGKKKTLIPLRKDAICHEMKRITLEKIEKCLLEERYEIKLEKEIIEKAQKAIERMLRI,not soluble
10,MFDFIGNGSAFNTERGNNSAFIKKNSSMILVDCGGTVFHRIKQLNLLQDIKNLYIIITHTHPDHIGSLGDLIFYCYYILKFKPTIIYPNKDIITDFFNIIGVGDEMYELVSDNKVNLTAPEFGDLNIEFIPASHVGVIPAYGFLIGMSDNLVYYSGDGNKLPEKNYKMAGDPLEHHHHHH,not soluble
11,MIKIGAHMPISKGFDRVPQDTVNIGGNSFQIFPHNARSWSAKLPSDEAATKFKREMKKHGIDWENAFCHSGYLINLASPKDDIWQKSVELLKKEVEICRKLGIRYLNIHPGSHLGTGEEEGIDRIVRGLNEVLNNTEGVVILLENVSQKGGNIGYKLEQLKKIRDLVDQRDRVAITYDTCHGFDSGYDITKKEGVEALLNEIESLFGLERLKMIHLNDSKYPLGAAKDRHERIGSGFIGEEGFAVFFSFKEIQEVPWILETPGGNEEHAEDIKKVFEIIEKFGIEVD,soluble
12,MGSDKIHHHHHHACDGKVYKKGDKIMFGVPKVSGYLFVRTFTKDGKISTMPKENLASQEAVIVDIPDYDKKLFEGMGVYSEVETHPLVVVELDGRRLCININDALSQGNIVSEYFKSEVEGMVDLTSDLLFVYALKLNNVTVDDDVIVRYMAHCDKNLVEKNQADPFTMADLKKEYAAKLEKALGDVDFSKVFRIESQSEMLQYDMDKQIFPLKGLWCPQIKTDQPDALAKIGFCKWDDCVFRFVNIPEFMNVPCETARAKGFYDMRKVGKVPTYNTPLATSYTYIRFLDKKVQLPEKKNKVYHNGDIKSMSLADLYGKMAIEAQIIKMDVYHLPFLKISDFELFYNYLGSIEVK,not soluble
13,MLRIAYRLLWRALLPFALLRLWWRGRKEPGYRQHVGERLGFYRPRANPDHPLLWVHAVSVGETRAAQPLIDALLARFPQHDVLLTHMTPTGRRTGAEFAAQRNGRVIQAYLPYDLAGAVDRFLRHFQPRLGLLMETEIWPVLIERAHHAGVPMVLVNGRLSERSHRRTARLGQAARETYAQLAAVLAQTPDDADRYRSLGVPRVRVTGNLKFDITPHVDQIMMGRALRDALGGRAVWVAASTREGEEPLLLDAWHAHRAQHAGRRHPLLILVPRHPQRFDEVAQLAGLKGLRVARRSALSLSAAEAPDAAGVLDADILLGDSMGEMALYYAAAQAAFIGGSLLPMGGQNLIEACAVGTPVVIGPHTFNFAQATRDAVAAGACVQVEDAACAVRVIDQWLSDADAREAASRAALAFAATHGGATARTVEAVASLVLPSLLEHHHHHH,not soluble
14,MSLFTCEDPAVWKAVHNKYWTVVEAKSAGKRKTSGKLLQLDKWFQEDLPAAITARPERFLTHAELVKIMEWKLTKGKFRPRLQQLIGSNNEEAVQSSSSKAFSLLPDVQAAIKELCKLKGVGSATASAVLVAGAPDKVAFMADEAVESIAELRPVEYTDKHYALYLQKMLWKTSELNKVDAQQDWTPHRVEQCLWTWTVANQIQPSLLQGVSLKDATNQKPEKRKTADEKPSKRKKTE,not soluble
15,MVVGVAGYYGFRNAGDEAILEAIARELKARGHEVVALSGDPKRTREDHGLRAYHRLNPLALLRADLWLLGGGGLLQDATSALSLTYYLSVLRLARLFRKRVVVFNQSLGPLSPWGERRVRKALQGVPVILRDQDSLEYARRLGIPAALGADPALLLPPPPVPREEDLVLVIPRAGVREEALTTLYVAANHLVHEGKQVLVLLLQPGYDDEVAEVFRLHRIERTSDPRRLLYLAAQAGYVISMRLHGLILAAAAGTPFAALSYDPKVAAFAKETGAYYQELPGEPIKLYKAALYGRFPDWEKVARLKERARQSFDLALGEGVPIKGSGRG,soluble
16,MAHHHHHHMSTVEDFVLQALASTDAVESDKLAETLRVNHQDVVGAIKSLEADGYVVSEIKPKPTWKLTSEAENICESGSPEFLLWELLAGGAMTQEDIAEKFGKDVAAVAVANGMKAKIFALNKSEGKIIVTRSPSVSSFHDGIRVSLMRALKGEHVDPKEAETLKKRKLATLDNMKVFFVTKGPNYATQRRAKAVGDLTKEMLQDGSWKTAHFKEYNLGAAGREVGCGQLHPLLKVRQEFREIFMELGFREMETDRWVESSFWNFDALFIAQNHPARDVQDTFFVSKPSTHKLDHREVVDRVREMHEKNFNYTWKEEEARRNVLRTHTTCCSGYWLHHIAKSSPLLPNGRRDFCPGRYYSIDRVFRNEEMDRTHLCEFHQVEGCVIDRNISLSNMMHTFQLFFSRIGVEKLRFKPVFNPYTEPSMEIFGWHKQLKRWIEVGNSGLFRPEMLVPLGFDEDVTVMAWGLSLERPTMIKYGLSSIHELFGHKVDLRFIKQSKLMRF,soluble
17,MNDFYVTLPSSVKNAQFENTSSRYVTRLPQVLHLEKDEYSVAVTDIIYPYSFVNLGRPLNYWIHFKNREPINVTFPAAQYDDLPHVVNSLNGVQKPRMKRGAPLILENEQVKRPKSDEPLSERDVIINKIRELEAKAKKDEEERIAREKEEKNKQREKHLATHKKAEEFAKKVQTDKDEQREKHLDTHKKAEQNAQDNQKYHDEERKKHIETQKKAEENEEKRRAKEKADRDAHVARHKQAEALEKKKREQEEKQKNEDRERATQKERREHIERHRQAEARAKALEKEKHEQEEKQKKENLERAEKERHDHIERQRQAEARAKALEQEKQEEKQKNEDRERATQKERREHLERHRQAEARAKALEKEKHERLQQEAKDKEDERARDKARKDAKAREEAKSREDVKAEKVAIDPKQVVNIPGKVYASQEAKKIIEKVNELEKQERDKIVSKVRESEAIEKEAVRASSEYHDVALKIFQKPNDRNIYDELKLSFERIRSRIKVSHFENSSDYLQFGEKDGRVSIDFLDSNILFEEFEKSCAYFLGFHDTIVRESSLAPSKIDYFGNVSTIYLYCDIVDPIIVGDSKNSLLSVIPCKGKYGEMIHHTIPHPRYLPIMNSTIDSIKIELLSEFAEPINFNWGSTVIVLHFKKI,not soluble
